The target in series [1] is T1, PA2709 (PaCysK, cysteine synthase A) (Pseudomonas aeruginosa, UniProt Q9I0D3).
T1 construct: gene cysK; recombinant, N-terminal His-tag with TEV cleavage site; homodimer
T1 sequence (Q9I0D3 1-324): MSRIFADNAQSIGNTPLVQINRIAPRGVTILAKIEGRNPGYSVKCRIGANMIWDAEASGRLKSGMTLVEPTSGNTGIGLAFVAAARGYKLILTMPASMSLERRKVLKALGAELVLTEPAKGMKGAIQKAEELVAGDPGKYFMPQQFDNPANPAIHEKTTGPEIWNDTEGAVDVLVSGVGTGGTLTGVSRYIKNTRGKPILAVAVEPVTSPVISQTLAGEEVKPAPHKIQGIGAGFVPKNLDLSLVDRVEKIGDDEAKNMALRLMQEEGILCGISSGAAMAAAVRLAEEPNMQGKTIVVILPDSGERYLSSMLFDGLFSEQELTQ
In words: UV-vis absorption ([…] nm), near-UV circular dichroism, fluorescence. It counts as binding. A general note: CD spectra are sensitive to the conformation of chiral molecules.

The target in series [2] is T2, PA0932 (PaCysM, cysteine synthase B) (Pseudomonas aeruginosa, UniProt Q9I526).
T2 construct: gene cysM; recombinant, N-terminal His-tag with TEV cleavage site; homodimer
T2 sequence (Q9I526 1-299): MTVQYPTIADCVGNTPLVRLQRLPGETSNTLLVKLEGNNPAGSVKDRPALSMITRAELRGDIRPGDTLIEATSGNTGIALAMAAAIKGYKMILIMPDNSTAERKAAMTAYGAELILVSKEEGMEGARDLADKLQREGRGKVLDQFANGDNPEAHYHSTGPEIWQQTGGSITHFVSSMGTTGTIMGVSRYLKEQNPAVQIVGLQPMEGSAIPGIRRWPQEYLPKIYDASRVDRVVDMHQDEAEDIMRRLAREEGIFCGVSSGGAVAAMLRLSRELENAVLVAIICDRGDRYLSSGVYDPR
Described as above. It counts as binding.

Series [3] concerns the target T2, PA0932 (PaCysM, cysteine synthase B). In words: ninhydrin steady-state kinetics, global fit (Km […]); substrate inhibition Ki. It counts as biochemical.
Substrate in series [4]: CC(=O)OC[C@H](N)C(=O)O
The experiment in a line: UV-vis absorption of PLP intermediates; steady-state kinetics, ninhydrin assay with thiosulfate (Km). It counts as biochemical, Pseudomonas aeruginosa. The note with it: pyridoxal […]'-phosphate (PLP) active site; forms alpha-aminoacrylate intermediate with PLP; pH 7.0; 25.0 °C.

Series [5] concerns the molecule itself. The experiment in a line: SEC-MALS; Agilent GPC/SEC, AdvanceBio SEC column (300 Å), dual-angle light-scattering detector, BSA as calibrant; protein loaded at 1 mg/mL in buffer H (100 mM HEPES, pH 7.0), 20 °C, 1 mL/min. In general terms: Size exclusion chromatography separates by hydrodynamic size, large species first.
Substrate in series [6]: CC(=O)OC[C@H](N)C(=O)O
In words: UV-vis absorption of PLP intermediates; steady-state kinetics with bisulfide electrode (Km). It counts as biochemical, Pseudomonas aeruginosa. Particulars: pyridoxal […]'-phosphate (PLP) active site; forms alpha-aminoacrylate intermediate with PLP; pH 7.0; 25.0 °C.

As for `Cc1ncc(COP(=O)(O)O)c(C=O)c1O` [PLP, pyridoxal 5′-phosphate], the “UV-vis absorption (411 nm), near-UV circular dichroism, fluorescence” value in series [1] is on record as “absorption of the PLP cofactor bound as an internal aldimine to the catalytic lysine”. The “UV-vis absorption (413 nm), near-UV circular dichroism, fluorescence” value in series [2] is on record as “absorption of the PLP cofactor bound as an internal aldimine to the catalytic lysine”. In series [3], `O=S(O)(O)=S` [thiosulfate] returned a Ki of 970 ± 830 µM.

B1: PA0932 (PaCysM, cysteine synthase B) (Pseudomonas aeruginosa PAO1) (protein)
chain: MTVQYPTIADCVGNTPLVRLQRLPGETSNTLLVKLEGNNPAGSVKDRPALSMITRAELRGDIRPGDTLIEATSGNTGIALAMAAAIKGYKMILIMPDNSTAERKAAMTAYGAELILVSKEEGMEGARDLADKLQREGRGKVLDQFANGDNPEAHYHSTGPEIWQQTGGSITHFVSSMGTTGTIMGVSRYLKEQNPAVQIVGLQPMEGSAIPGIRRWPQEYLPKIYDASRVDRVVDMHQDEAEDIMRRLAREEGIFCGVSSGGAVAAMLRLSRELENAVLVAIICDRGDRYLSSGVYDPR
notes: recombinant, N-terminal His-tag with TEV cleavage site; homodimer
As usually defined, the Km is the concentration of substrate that gives half-maximal velocity. In general, kcat refers to the number of substrate molecules converted per active site and unit of time at saturation. As usually defined, the kcat/Km is the second-order rate constant that governs catalysis at low substrate concentration. In the case of B1, in series [4], the Km was determined as 2700 ± 600 µM, the kcat was found to be 209 ± 25 s⁻¹ and the kcat/Km amounted to 79000 ± 20000 M⁻¹ s⁻¹.

B2: Cysteine synthase B (PA0932, PaCysM) from Pseudomonas aeruginosa (enzyme, Pseudomonas aeruginosa PAO1, UniProt Q9I526 1-299, looked up)
chain: MTVQYPTIADCVGNTPLVRLQRLPGETSNTLLVKLEGNNPAGSVKDRPALSMITRAELRGDIRPGDTLIEATSGNTGIALAMAAAIKGYKMILIMPDNSTAERKAAMTAYGAELILVSKEEGMEGARDLADKLQREGRGKVLDQFANGDNPEAHYHSTGPEIWQQTGGSITHFVSSMGTTGTIMGVSRYLKEQNPAVQIVGLQPMEGSAIPGIRRWPQEYLPKIYDASRVDRVVDMHQDEAEDIMRRLAREEGIFCGVSSGGAVAAMLRLSRELENAVLVAIICDRGDRYLSSGVYDPR
modifications: PLP cofactor bound as an internal aldimine to the catalytic lysine (Lys45, based on sequence alignments)
notes: Cysteine synthase B (CysM, PA0932) of P. aeruginosa PAO1; gene optimised for E. coli, synthesised and cloned between NdeI and BamHI into pET28a-TEV; calculated mass for a dimer 65 kDa; also called OASS-B; S-sulfocysteine synthase; not shown: His6, N-terminal, cleaved
The term stoichiometry N denotes the number of molecules, sites or subunits per partner or assembly. In the case of B2, the “stoichiometry N” value in series [5] is 2.

B3: PA2709 (PaCysK, cysteine synthase A) (Pseudomonas aeruginosa PAO1) (protein)
chain: MSRIFADNAQSIGNTPLVQINRIAPRGVTILAKIEGRNPGYSVKCRIGANMIWDAEASGRLKSGMTLVEPTSGNTGIGLAFVAAARGYKLILTMPASMSLERRKVLKALGAELVLTEPAKGMKGAIQKAEELVAGDPGKYFMPQQFDNPANPAIHEKTTGPEIWNDTEGAVDVLVSGVGTGGTLTGVSRYIKNTRGKPILAVAVEPVTSPVISQTLAGEEVKPAPHKIQGIGAGFVPKNLDLSLVDRVEKIGDDEAKNMALRLMQEEGILCGISSGAAMAAAVRLAEEPNMQGKTIVVILPDSGERYLSSMLFDGLFSEQELTQ
notes: as for B1
For the molecule B3, in series [6], the Km was determined as 1100 ± 100 µM, the kcat came to 102 ± 3 s⁻¹ and the kcat/Km stood at 90000 ± 9000 M⁻¹ s⁻¹.

B4: Cysteine synthase A (PA2709, PaCysK) from Pseudomonas aeruginosa (enzyme, Pseudomonas aeruginosa PAO1, UniProt Q9I0D3 1-324, looked up)
chain: MSRIFADNAQSIGNTPLVQINRIAPRGVTILAKIEGRNPGYSVKCRIGANMIWDAEASGRLKSGMTLVEPTSGNTGIGLAFVAAARGYKLILTMPASMSLERRKVLKALGAELVLTEPAKGMKGAIQKAEELVAGDPGKYFMPQQFDNPANPAIHEKTTGPEIWNDTEGAVDVLVSGVGTGGTLTGVSRYIKNTRGKPILAVAVEPVTSPVISQTLAGEEVKPAPHKIQGIGAGFVPKNLDLSLVDRVEKIGDDEAKNMALRLMQEEGILCGISSGAAMAAAVRLAEEPNMQGKTIVVILPDSGERYLSSMLFDGLFSEQELTQ
modifications: PLP cofactor bound as an internal aldimine to the catalytic lysine (Lys44, based on sequence alignments)
notes: Cysteine synthase A (CysK, PA2709) of P. aeruginosa PAO1; gene optimised for E. coli, synthesised and cloned between NdeI and BamHI into pET28a-TEV; calculated mass for a dimer 69 kDa; also called O-acetylserine sulfhydrylase; OASS-A; not shown: His6, N-terminal, cleaved
On to B4, for which, in series [5], the “stoichiometry N” value was 2.
